In US20180282426A1 (NOVIMMUNE S A, published 2018):

Experiments:
[1] = target: T1, recombinant soluble MD-2 purified from baculovirus-infected insect cell supernatants (UniProt Q9Y6Y9 19-160); test: direct ELISA, MD-2 coated at 5 ug/ml
T1 construct: Expressed in Sf9 cells, purified on NiNTA, coated at 5 ug/ml in the direct ELISA; not shown: C-terminal FLAG and 6xHIS tags
T1 sequence (looked up): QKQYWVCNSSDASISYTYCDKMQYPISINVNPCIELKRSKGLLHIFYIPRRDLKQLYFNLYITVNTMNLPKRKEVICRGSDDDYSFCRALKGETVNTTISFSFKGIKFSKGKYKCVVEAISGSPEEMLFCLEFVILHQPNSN
Method: Recombinant soluble MD-2 with C terminal FLAG and histidine epitope tags was coated at a concentration of 5 μg/ml in 50 μl PBS on ELISA plates (Nunc Maxisorp). Wells were blocked with 200 μl PBS 2% BSA and subsequently incubated with the appropriate MAb at the indicated concentration in PBS 1% BSA. Following 3 wash steps with PBS 0.05% Tween 20, 50 μl HRP conjugated goat anti-mouse IgG (H+L) at a 1:5000 dilution was added to the wells. […] Plates were read at a wavelength of 650 nm.
Using direct ELISA, no binding of 18H10 to recombinant soluble MD-2 generated with the baculovirus expression system was detected (FIG. 5a).

[2] = target: T2, human TLR4 alone in transfected HEK 293 cells (human, UniProt O00206 24-839); test: sandwich ELISA, capture on anti-FLAG M2, biotinylated 18H10
T2 construct: whole, on cells; also called TLR4 alone in transfected cell lysates
Method: (§1) For sample preparation, HEK 293 cells were transfected with the appropriate plasmid constructs using the Fugene 6™ transfection reagent as described in paragraph G above. 48 hours post-transfection, cells were collected and cleared by centrifugation. Cells were subsequently incubated with biotinylated 18H10 (10 μg/ml) and lysed in 20 mM Tris pH 7.4, 150 mM NaCl, 1% NP40 containing COMPLETE™ protease inhibitors (Roche).
(§2) To perform the sandwich ELISA, Nunc maxisorp plate wells were coated with 50 μl of the anti-FLAG™ M2 MAb (Sigma) at a concentration of 5 μg/ml in PBS. Wells were blocked with 200 μl PBS 2% BSA and subsequently incubated with 50 μl of the appropriate samples at the indicated dilution. Wells were washed three times with 200 μl PBS 0.05% Tween 20 and incubated with 50 μl of the appropriate antibody (10 μg/ml for biotinylated 18H10 and 12D4, 1 μg/ml for the polyclonal anti-MD-2 […]). Following a wash step as above, wells were incubated with 50 μl of the appropriate detection antibody (HRP conjugated streptavidin at a dilution of 1:1500 for the biotinylated MAbs and HRP conjugated anti-rabbit IgG (H+L) at a dilution of 1:5000 for the polyclonal rabbit Ab). […] Plates were read at a wavelength of 650 nm.

[3] = target: T3, MD-2 alone in transfected HEK 293 cell lysates/supernatants (UniProt Q9Y6Y9 19-160, limits assumed); test: as above
T3 construct: not shown: C-terminal FLAG and 6x Histidine tags
T3 sequence (looked up): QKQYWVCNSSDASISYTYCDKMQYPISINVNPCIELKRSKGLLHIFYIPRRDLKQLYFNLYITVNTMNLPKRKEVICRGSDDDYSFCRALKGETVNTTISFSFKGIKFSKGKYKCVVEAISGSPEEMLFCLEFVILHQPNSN
Method: as §1, §2

[4] = target: T4, human TLR4/MD-2 complex in transfected HEK 293 cells (FLAG-TLR4 with MD-2-FLAG-6xHis) (human, UniProt O00206 24-839; Q9Y6Y9 19-160); test: sandwich ELISA, capture on anti-FLAG M2, biotinylated 18H10 with streptavidin-HRP
T4 construct: whole, on cells; also called TLR4/MD-2 transfected HEK 293 cells; hTLR4/MD-2 transfected HEK 293 cells
Method: as §1, §2

[5] = target: T5, human TLR4 and human MD-2 on transiently transfected HEK 293 cells (human, UniProt O00206 24-839; Q9Y6Y9 19-160); test: FACS on transiently transfected HEK 293 cells
T5 construct: whole, on cells; also called human TLR4/MD-2 complex
Method: FIGS. 4A-4L are a series of graphs depicting the specificity of the 18H10 monoclonal antibody for MD-2. The specificity of the 18H10 antibody is shown by flow cytometry analysis of HEK 293 cells transiently transfected with either human TLR4 and human MD-2 (FIG. 4A, FIG. 4E and FIG. 4I); rabbit TLR4 and rabbit MD-2 (FIG. 4B, FIG. 4F and FIG. 4J); human TLR4 and rabbit MD-2 (FIG. 4C, FIG. 4G and FIG. 4K); or rabbit TLR4 and human MD-2 (FIG. 4D, FIG. 4H and FIG. 4L). Cells were incubated with either α-FLAG™ antibody (to detect TLR4 expression); α-C-myc antibody (to detect MD-2 expression) or the 18H10 monoclonal antibody, followed by an APC-coupled α-mouse (H+L) antibody.
FIGS. 12A-12L is a series of graphs depicting the specificity of the 16G7 monoclonal antibody for TLR4. […]
HEK 293 cells were plated in 6 well plates at a density of 2.5×10⁵ cells/well in 2 ml culture medium containing 10% FBS. […] 48 hours post-transfection, cells were stained with the appropriate monoclonal antibody (as indicated in FIGS. 4A-4L) and an APC-coupled goat anti-mouse IgG (H+L) antibody (Molecular Probes) and analyzed using the FACScalibur in the FL-4 channel.

[6] = target: T6, human TLR4/MD-2 complex on the surface of transfected CHO cells (human, UniProt O00206 24-839; Q9Y6Y9 19-160); test: flow cytometry, mock transfected vs. TLR4/MD-2 transfected cells
T6 construct: whole, on cells; also called TLR4/MD-2 transfected CHO cells; hTLR4/MD-2 transfected CHO cells
T6 sequence (O00206 24-839, one chain of several): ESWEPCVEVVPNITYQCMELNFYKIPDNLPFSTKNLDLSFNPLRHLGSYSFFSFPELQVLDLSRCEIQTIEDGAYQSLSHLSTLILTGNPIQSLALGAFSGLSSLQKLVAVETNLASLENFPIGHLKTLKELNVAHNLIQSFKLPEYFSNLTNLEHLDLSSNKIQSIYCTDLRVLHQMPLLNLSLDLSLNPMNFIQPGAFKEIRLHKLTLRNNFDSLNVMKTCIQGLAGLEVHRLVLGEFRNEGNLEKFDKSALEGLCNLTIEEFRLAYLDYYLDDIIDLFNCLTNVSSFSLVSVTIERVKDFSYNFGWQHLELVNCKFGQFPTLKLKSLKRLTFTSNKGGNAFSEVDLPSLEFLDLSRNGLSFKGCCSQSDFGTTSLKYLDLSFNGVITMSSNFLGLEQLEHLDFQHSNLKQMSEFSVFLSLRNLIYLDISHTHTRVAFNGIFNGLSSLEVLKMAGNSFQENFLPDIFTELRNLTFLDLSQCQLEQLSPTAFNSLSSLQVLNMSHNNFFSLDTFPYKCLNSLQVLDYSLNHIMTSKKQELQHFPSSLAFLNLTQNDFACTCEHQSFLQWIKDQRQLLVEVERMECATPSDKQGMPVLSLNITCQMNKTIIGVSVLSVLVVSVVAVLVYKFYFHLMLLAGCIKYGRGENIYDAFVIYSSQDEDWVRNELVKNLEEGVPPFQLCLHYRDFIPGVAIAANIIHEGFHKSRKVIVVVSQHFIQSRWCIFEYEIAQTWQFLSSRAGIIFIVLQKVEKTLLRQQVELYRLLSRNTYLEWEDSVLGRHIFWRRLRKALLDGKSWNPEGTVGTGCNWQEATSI

T5 sequence (O00206 24-839, one chain of several): as above
T2 sequence (O00206 24-839): as the sequence (O00206 24-839, one chain of several) above
T4 sequence (O00206 24-839, one chain of several): as above

B1: 18H10 monoclonal antibody (antibody, IgG2b, V domains shown)
VH: QVQLQQSGADLVRPGALVKLSCTASGFNIKDSYIHWVKKRPEWGLEWIGWTDPENVNSIYDPRFQGKASITADTSSNTAFLQLTSLTSEDTAVYYCARGYNGVYYAMDYWGQGTTVTVSS
VL: QIVLTQSPSIMSASLGEEITLTCSASSSVIYMHWYQQKSGTSPKLLIYRTYNLASGVPSRFSGSGSGTFYSLTISSVEAEDAADYYCHQWSSFPYTFGGGTKLEIKR
notes: also called 18H10 MAb; 18H10 mouse MAb
binding result [1]: no binding
binding result [2]: no binding (tested: 10 µg/ml biotinylated 18H10)
binding result [3]: no binding (tested: 10 µg/ml biotinylated 18H10)
binding result [4]: binds
binding result [5]: binds
binding result [6]: binds
